# Experimental data published in IntAct's records for PubMed 19351902.
# B1: Short transient receptor potential channel 3 (Mus musculus), Q9QZC1 (parent)
# chain: MSTKVKKCREPARVTLPAPEEEEDGEAEGGESQRRRRGWRGVNGGLEPPCPRAPPSPGPDASSEGSPSRWRTAGMRDKGRRQAVRGPAFMFGARGPSLTAEEERFLDAAEYGNIPVVRKMLEESRTLNVNCVDYMGQNALQLAVGNEHLEVTELLLKKENLARIGDALLLAISKGYVRIVEAILGHPGFAASRRLTLSPCEQELRDDDFYAYDEDGTRFSPDITPIILAAHCHKYEVVHLLLLKGARIERPHDYFCRCSDCAEKQRLDAFSHSRSRINAYKGLASPAYLSLSSEDPVLTALELSNELAKLANIEKEFKNDYRKLSMQCKDFVVGVLDLCRDSEEVEAILNGDLESAEPLERHGHKASLSRVKLAIKYEVKKFVAHPNCQQQLLTIWYENLSGLREQTIAIKCLVVLVVALGLPFLAIGYWIAPCSRLGKILRSPFMKFVAHAASFIIFLGLLVFNASDRFEGITTLPNITVIDYPKQIFRVKTTQFTWTEMLIMVWVLGMMWSECKELWLEGPREYIVQLWNVLDFGMLSIFIAAFTARFLAFLQATKAQQYVDSHVQESDLSEVTLPPEVQYFTYARDKWLPSDPQIISEGLYAIAVVLSFSRIAYILPANESFGPLQISLGRTVKDIFKFMVLFIMVFLAFMIGMFILYSYYLGAKVNPAFTTVEESFKTLFWSIFGLSEVTSVVLKYDHKFIENIGYVLYGIYNVTMVVVLLNMLIAMINSSYQEIEDDSDVEWKFARSKLWLSYFDDGKTLPPPFSLVPSPKSFVYFIMRITNFSKCRRRRLQKDLELGMGNSKSRLNLFTQSNSRVFESHSFNSILNQPTRYQQIMKRLIKRYVLKAQVDKENDEVNEGELKEIKQDISSLRYELLEDKSQATEELAILIHKLSEKLNPSVLRCE
# Variants of: B1
# Settings: with kpcg_human PRKCG
row,effect of a mutation on the interaction,Variant
1,disrupting interaction strength,T635A
